Measured values taken from patent CN114621348A (SHENZHEN SHENHI BIOMEDICINE CO LTD, dated 2022).
Blank lines part the entries; values can stand above or below the binder they belong to.

What was measured:
[1] = target: T1, 磷脂酰肌醇蛋白聚糖3(GPC3) (UniProt P51654 25-554); test: flow cytometry on GPC3-CHO-S cells, full-length IgG1
T1 construct: whole, on cells; also called MXR7; OCI-5

[2] = target: T1, 磷脂酰肌醇蛋白聚糖3(GPC3); test: flow cytometry on HepG2 cells, full-length IgG1
[3] = target: T1, 磷脂酰肌醇蛋白聚糖3(GPC3); test: flow cytometry on HuH-7 cells, full-length IgG1
[4] = target: T1, 磷脂酰肌醇蛋白聚糖3(GPC3); test: flow cytometry on HepG2 cells
[5] = target: T1, 磷脂酰肌醇蛋白聚糖3(GPC3); test: flow cytometry on GPC3-CHO-S cells
[6] = target: T1, 磷脂酰肌醇蛋白聚糖3(GPC3); test: flow cytometry on HuH-7 cells

T1 sequence (P51654 25-554 limits assumed, form in doubt): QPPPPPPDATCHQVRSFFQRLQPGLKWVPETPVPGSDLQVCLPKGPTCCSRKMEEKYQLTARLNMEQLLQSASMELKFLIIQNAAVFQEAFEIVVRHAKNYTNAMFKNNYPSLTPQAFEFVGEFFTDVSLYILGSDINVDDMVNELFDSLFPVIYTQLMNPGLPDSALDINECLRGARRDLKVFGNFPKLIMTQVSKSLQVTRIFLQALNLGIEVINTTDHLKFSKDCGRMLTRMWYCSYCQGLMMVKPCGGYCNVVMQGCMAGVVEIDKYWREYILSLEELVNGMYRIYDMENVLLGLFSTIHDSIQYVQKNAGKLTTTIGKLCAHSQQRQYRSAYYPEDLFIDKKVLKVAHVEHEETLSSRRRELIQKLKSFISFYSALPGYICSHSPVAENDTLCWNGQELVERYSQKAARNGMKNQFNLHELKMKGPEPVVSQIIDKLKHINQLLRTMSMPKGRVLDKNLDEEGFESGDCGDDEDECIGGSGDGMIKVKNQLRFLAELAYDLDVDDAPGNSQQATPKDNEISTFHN

EC50 [1]: 0.0968 µg/mL | EC50 [2]: 11.6 µg/mL
B1: D48 (antibody, V domains shown)
VH: EVQLLESGGGLVQPGESLRLSCEASGLTFSSYPMAWVRQAPGKGLEWVSVIYSDGSKKFYADSVKGRFTISRHNSKNTLYLQMNSLRAEDTAVYYCARGISSSGFDYWGQGTLVTVSS
VL: DIQLTQSPSSLSASVGDRVTITCRASQGISSWLAWYQQKPGKAPKLLIYAASSLQSGVPSRFSGSGSGTDFTLTISSLQPEDFATYYCQQGNSFPLTFGGGTKVEIK
notes: also called 克隆D48

EC50 [3]: 9.62 µg/mL | EC50 [1]: 0.0664 µg/mL
B2: D5 (antibody, V domains shown)
VH: EVQLLESGGGVVQPGRSLRLSCAASGFTFSSYAMHWVRQAPGKGLEWVAVISYDGSNKYYADSVKGRFTISRDNSKNTLYLQMNSLRAEDTAVYYCARQYSSSSPFDYWGQGTLVTVSS
VL: NIQLTQSPSTLSASVGDRITITCRASQSISRWLAWYQQKPGKAPKVLIYKASNLENGVPSRFSGSGSGTEFTLTISSLQPDDSATYYCQQHSYSSPWRFGQGTKVEIK
notes: also called 克隆D5

EC50 [3]: 6.21 µg/mL | EC50 [1]: 0.0314 µg/mL
B3: D37 (antibody, V domains shown)
VH: QVQLLESGGGLVQPGGSLRLSCAASGFTFSSYAMNWVRQAPGKGLEWVSTISGSGGSTYYADSVKGRFTISRDNSKNTLYLQMNSLRAEDTAVYYCARGSWGAFDIWGQGTPVTVSS
VL: DIQLTQSPSSLSASVGDRVTITCQASQGISNYVNWYQQKPGKAPELLISDAYNLEAGVPSTFSGSGSGTQFTFTISSLQPEHIGTYYCQQFETIPWTFGQGTKIEVK
notes: also called 克隆D37

EC50 [3]: 0.0228 µg/mL
B4: D47 (antibody, V domains shown)
VH: EVQLLESGGGLVKPGGSLRLSCAASGFTFSSYSMNWVRQAPGKGLEWVSSISSSSSYIYYADSVKGRFTISRDNAKNSLYLQMNSLRAEDTAVYYCARGAARFDYWGQGTMVTVSS
VL: NIQLTQSPSSVSASVGDRVTITCRASQGIWRWLAWYQHKPGKAPKLLISAASNLQSGVPSRFSGSGSGTDFTLTISSLQPEDVATYYCQQANSFPSLTFGGGTKVDIR
notes: also called 克隆D47

EC50 [4]: 0.172 µg/mL | EC50 [5]: 0.184 µg/mL | EC50 [6]: 0.191 µg/mL
B5: Codrituzumab (antibody, human IgG1, kappa, V domains shown)
VH: QVQLVQSGAEVKKPGASVKVSCKASGYTFTDYEMHWVRQAPGQGLEWMGALDPKTGDTAYSQKFKGRVTLTADKSTSTAYMELSSLTSEDTAVYYCTRFYSYTYWGQGTLVTVSS
VL: DVVMTQSPLSLPVTPGEPASISCRSSQSLVHSNRNTYLHWYLQKPGQSPQLLIYKVSNRFSGVPDRFSGSGSGTDFTLKISRVEAEDVGVYYCSQNTHVPPTFGQGTKLEIKR
notes: also called GC33; GPC3阳性抗体

EC50 [2]: 18.3 µg/mL
B6: D42 (antibody, V domains shown)
VH: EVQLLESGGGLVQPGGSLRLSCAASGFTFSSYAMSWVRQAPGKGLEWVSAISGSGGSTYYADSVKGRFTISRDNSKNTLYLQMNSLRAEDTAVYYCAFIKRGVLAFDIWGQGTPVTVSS
VL: DIQLTQSPSSVSASVGDRVVITCRASQSLGNWLAWYQQKPGKAPNLLIYGASTLQTGVPSRFSGFHSGGEYTLSISNLQPEDAATYYCQQASSIPLTFGGGTKVEIK
notes: also called 克隆D42

EC50 [3]: 45.1 µg/mL | EC50 [1]: 0.0394 µg/mL | EC50 [2]: 83.9 µg/mL
B7: D38 (antibody, V domains shown)
VH: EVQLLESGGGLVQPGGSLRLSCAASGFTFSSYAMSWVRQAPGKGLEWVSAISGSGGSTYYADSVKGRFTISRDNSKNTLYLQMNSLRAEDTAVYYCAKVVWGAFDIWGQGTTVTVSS
VL: NIQMTQSPSSLSASVGDRVTISCQASQDISNYVNWYQQRPGKAPKLLMYDASNLEVGVPVRFRGSGSGTEFTFTILSLQPEDLGTYYCQQYDSLPFTFGQGTKLDLK
notes: also called 克隆D38

EC50 [1]: 0.0316 µg/mL | EC50 [2]: 7.94 µg/mL
B8: D35 (antibody, V domains shown)
VH: EVQLVESGGGVVKPGGSLRLSCAASGFIFSDSYMTWLRQAPGKGLEWVSYISGSASDIKYADSVKGRFTISRDNAKNSLYLQMNSLRVEDTAVYYCARDPRLAGIWGQGTTVTVSS
VL: DIQLTQSPSTLSASIGDRVTITCRASQRVSSRLAWYQQKPGKAPKLLIYKTSNLEAEVPSRFSGSGSGTEFTLTISSLQPDDFATYYCQQYHSYPLTFGGGTKVEIK
notes: also called 克隆D35

EC50 [1]: 0.0394 µg/mL
B9: D36 (antibody, V domains shown)
VH: EVQLLESGGGLVKPGGSLRLSCAASGFTFSSYSMNWVRQAPGKGLEWVSSISSSSSYIYYADSVKGRFTISRDNAKNSLYLQMNSLRAEDTAVYYCARETTDGGMDVWGQGTLVTVSS
VL: DIQMTQSPSSVSASVGDRVTITCRASQDIGKYLNWYQQKAGKAPNLLIYDASNLKTGVSSRFSGSGSGTEFTFTISSLQPEDIATYFCQQFDDFPYTFGPGTKVGIR
notes: also called 克隆D36
